What follows are substances tested against PD-1 (human) (assay: cell-based or functional assay).

Fold increase over wildtype PD-L2 IgV-Fc, MLR IFN gamma [fold]	IFN gamma levels pg/mL, MLR [pg/mL]	Substance
1.26	1730	PD-L2 IgV-Fc H15Q, T47A, H69L, Q82R, V89D (Fc fusion)
0.97	1340	PD-L2 IgV-Fc H15Q, T47A, K65R, S67L, Q82R, V89D (Fc fusion)
1.16	1600	PD-L2 IgV-Fc H15Q, T47A, Q72H, R76G, I86T (Fc fusion)
0.96	1320	PD-L2 IgV-Fc H15Q, T47A, Q82R (Fc fusion)
0.87	1200	PD-L2 IgV-Fc H15Q, T47A, S67L, Q82R, V89D (Fc fusion)
1.09	1500	PD-L2 IgV-Fc H15Q, V89D (Fc fusion)
0.92	1270	PD-L2 IgV-Fc I13V, H15Q, E44V, T47A, Q82R, V89D (Fc fusion)
1.07	1470	PD-L2 IgV-Fc I13V, H15Q, L33F, T47A, Q82R, V89D (Fc fusion)
1.16	1600	PD-L2 IgV-Fc I13V, H15Q, Q82R, V89D (Fc fusion)
0.86	1190	PD-L2 IgV-Fc I13V, H15Q, R76G, D77N, Q82R, V89D (Fc fusion)
0.91	1260	PD-L2 IgV-Fc I13V, H15Q, S39I, E44D, S67L (Fc fusion)
0.74	1010	PD-L2 IgV-Fc I13V, H15Q, S67L, I86T (Fc fusion)
1.27	1750	PD-L2 IgV-Fc I13V, H15Q, T37A, E44D, S48C, S67L, Q82R, V89D (Fc fusion)
1.07	1470	PD-L2 IgV-Fc I13V, H15Q, T47A, Q72H, R76G (Fc fusion)
1.05	1450	PD-L2 IgV-Fc I13V, H15Q, T47A, Q82R, V89D (SEQ ID NO 1544) (Fc fusion)
1.26	1740	PD-L2 IgV-Fc I13V, H15Q, T47A, Q82R, V89D (SEQ ID NO 1545) (Fc fusion)
0.91	1250	PD-L2 IgV-Fc I13V, H15Q, T47A, R76G, V89D (Fc fusion)
1.13	1560	PD-L2 IgV-Fc I13V, H15Q, T47A, S67L, Q72H, R76G, Q82R, V89D (Fc fusion)
1.44	1980	PD-L2 IgV-Fc N24D (Fc fusion)
0.87	1190	PD-L2 IgV-Fc N32D, S67L, V89D (Fc fusion)
0.95	1310	PD-L2 IgV-Fc S39I, V89D (Fc fusion)
0.74	1020	PD-L2 IgV-Fc S67L, I86T (Fc fusion)
0.85	1170	PD-L2 IgV-Fc V89D (Fc fusion)
–	1380	Wild Type PD-L2 IgV (Fc fusion)

More lines, now with the values behind:

Substance	Fold increase over wildtype PD-L2 IgV-Fc, MLR IFN gamma [fold]	IFN gamma levels pg/mL, MLR [pg/mL]
PD-L2 IgV-Fc H15Q, T47A (Fc fusion)	1.19	1640
PD-L2 IgV-Fc H15Q, T47A, Q72H, R76G (Fc fusion)	1.06	1460
PD-L2 IgV-Fc H15Q, T47A, S67L, R76G, Q82R, V89D (Fc fusion)	0.8	1100
PD-L2 IgV-Fc H15Q, V31M, S67L, Q82R, V89D (Fc fusion)	0.88	1210
PD-L2 IgV-Fc I12V, I13V, H15Q, T47A, Q82R, V89D (Fc fusion)	1.11	1530
PD-L2 IgV-Fc I13V, E44D, Q82R, V89D (Fc fusion)	0.73	1010
PD-L2 IgV-Fc I13V, H15Q, E44D, V89D (Fc fusion)	1.01	1380
PD-L2 IgV-Fc I13V, H15Q, I36V, T47A, S67L, V89D (Fc fusion)	0.99	1360
PD-L2 IgV-Fc I13V, H15Q, Q72H, R76G, I86T (Fc fusion)	0.89	1220
PD-L2 IgV-Fc I13V, H15Q, Q82R (Fc fusion)	1.04	1430
PD-L2 IgV-Fc I13V, H15Q, R76G, I85F (Fc fusion)	1.11	1530
PD-L2 IgV-Fc I13V, H15Q, T47A, E58G, S67L, Q82R, V89D (Fc fusion)	0.61	836
PD-L2 IgV-Fc I13V, H15Q, T47A, H69L, R76G, V89D (Fc fusion)	0.78	1080
PD-L2 IgV-Fc I13V, H15Q, T47A, Q72H, R76G, I86T (Fc fusion)	0.79	1090
PD-L2 IgV-Fc I13V, H15Q, T47A, Q82R (Fc fusion)	1.24	1700
PD-L2 IgV-Fc I13V, H15Q, V31A, N45S, Q82R, V89D (Fc fusion)	1.25	1720
PD-L2 IgV-Fc I13V, H15Q, V89D (Fc fusion)	0.82	1120
PD-L2 IgV-Fc I13V, Q72H, R76G, I86T (Fc fusion)	1.42	1950
PD-L2 IgV-Fc I13V, S39I, E44D, Q82R, V89D (Fc fusion)	0.68	936
PD-L2 IgV-Fc I13V, S67L, Q82R, V89D (Fc fusion)	1	1370
PD-L2 IgV-Fc I13V, S67L, V89D (Fc fusion)	0.63	868
PD-L2 IgV-Fc Q82R, V89D (Fc fusion)	1.17	1620
PD-L2 IgV-Fc S67L, I85F (Fc fusion)	0.93	1280
PD-L2 IgV-Fc S67L, V89D (Fc fusion)	0.89	1230
